# In the supplement of paper PMC10126150:
# ± gives the standard deviation of the averaged measurements.
# Test system: ATP
# Test: switch fluorescence ratio, 500 uM ATP over buffer (Cy3 cluster intensity, sum of 5 cycles each) (fold (ratio)); higher = stronger signal-on switching upon ATP binding; sequences stand for … in TCGTCGGCAGCGTCAGATGTGTATAAGAGACAGTTTTTTTTTTTTTTTTTTTTTTTTT…TC
# Settings: aptamer strand: ATP DNA aptamer (quencher-CACCTGGGGGAGTATTGCGGAGGAAGG + anchor), 100 nM annealed; ATP concentration: 500 uM
# Outline: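 Per cluster, summed Cy3 intensity from the target cycles was divided by that from the buffer cycles to give the fluorescence ratio, then averaged per switch-domain sequence. Clusters outside 100-1000 RFU were excluded. The Cy3-labelled switching-strand clusters, on a modified Illumina MiSeq flow-cell, were annealed to 100 nM quencher-labelled ATP aptamer and imaged in selection buffer, then after 15 min with 500 uM ATP at 22 °C, for five cycles with NaOH stripping and re-annealing between them.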
# 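Note: ATP exposure 15 min at 22 °C before imaging.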
row,Sequence,switch fluorescence ratio
1,AGGCTTACTC,1.39 ± 0.028
2,GCATTTGGGA,0.99 ± 0.012
3,TCACACAGGC,1.08 ± 0.16
4,TTCAAGACGG,0.995 ± 0.023
5,ATTTTATAAA,0.986 ± 0.026
6,CGGGGATAAG,0.981 ± 0.011
7,ACTGCGGGAC,1.51 ± 0.69
8,AAAGAAAGGA,0.977 ± 0.032
9,TATACCGGCG,1.05 ± 0.076
10,TTAATTGAAG,0.958 ± 0.04
11,TTTCATTTGT,1.02 ± 0.075
12,TGTGTTGGTT,0.9939 ± 0.0073
13,TGCGGGGGGG,1.03 ± 0.038
14,AAGTATGTTC,1.004 ± 0.0014
15,TATGGTGAGG,0.976 ± 0.013
16,CACTTTCATG,1.013 ± 0.0021
17,GGATACTGCA,1.043 ± 0.0054
18,CAAAGGGCAT,1.02 ± 0.032
19,TGAGCATAGT,1.026 ± 0.0023
20,GTCGTTGGTT,0.985 ± 0.033
21,GGCTGAATGG,0.988 ± 0.033
22,TTCGGGTTTG,1 ± 0.034

row,Sequence,switch fluorescence ratio
1,CAGGGGGGAG,0.992 ± 0.035
2,CAAAAATTAT,1.03 ± 0.044
3,AATAGGAGAG,0.987 ± 0.0099
4,TTATAGGGGT,1.09 ± 0.057
5,TACTGTACTC,1.54 ± 0.035
6,GCTTTACCAG,0.989 ± 0.013
7,GGACTGGTCG,1 ± 0.022
8,TTGGGTAAGA,1.02 ± 0.028
9,ACGGTGCATG,1.018 ± 0.006
10,ACGGCCGGTC,0.9773 ± 0.0026
11,AATCTATATT,1.01 ± 0.025
12,AGGGCAGGTG,2.65 ± 0.13
13,AGATTTATTT,1.004 ± 0.0097
14,AATATGCTCC,1.14 ± 0.064
15,TACTCGTCTA,1.02 ± 0.018
16,TATAAAACAC,1.02 ± 0.013
17,TTTTTACTCC,1.48 ± 0.53
18,TTTGATCTT,0.974 ± 0.03
19,TGGGGAGCTT,0.99 ± 0.023
20,CAGTGTCGGG,0.9984 ± 0.0085
21,ATGCATTTGT,1.01 ± 0.031
22,CATGTTGGTA,0.9946 ± 0.0076

row,Sequence,switch fluorescence ratio
1,TAAGAGGGCA,1.01 ± 0.014
2,AGTCCGTGCT,1.05 ± 0.044
3,TGCTAACAGG,1.022 ± 0.0078
4,TTTTTGGATG,1.02 ± 0.057
5,TTAGAACTCT,1.01 ± 0.014
6,CGTTGCGCGT,0.993 ± 0.037
7,GCCATCAGAG,0.973 ± 0.0044
8,GGTGATAGTT,0.994 ± 0.017
9,GGAAGGTAAT,1 ± 0.048
10,GCTATACAGC,1.03 ± 0.049
11,TTTATCTTCG,1.04 ± 0.017
12,CCTGACTTTC,1.11 ± 0.045
13,TTCGTGGCCC,0.9572 ± 0.003
14,CGACATATCC,1.12 ± 0.027
15,CCCGCAGTGT,4.3 ± 1.4
16,TGAGGTATG,0.971 ± 0.046
17,CTATCTCTTG,1 ± 0.017
18,AGGCCTCGGG,1.022 ± 0.0054
19,TACGGGGAT,1.84 ± 1.2
20,CTGAACTCGA,1.09 ± 0.046
21,TTTGAATCG,1.01 ± 0.021
22,CGGTTGTGAA,0.963 ± 0.018

row,Sequence,switch fluorescence ratio
1,TTCAATTGGT,0.974 ± 0.033
2,ACATTTTTTT,1.01 ± 0.029
3,ATGTGAGTTC,0.985 ± 0.022
4,ATTGGTTACG,1.01 ± 0.028
5,CCAGGGTGCT,2 ± 0.39
6,GTCAGAGGCA,0.991 ± 0.011
7,TACGTTGCAT,1.05 ± 0.055
8,TTTTGCTGCA,0.978 ± 0.013
9,TATCCTTTCA,1.04 ± 0.026
10,ATTTGGCATC,1.41 ± 0.47
11,ATGCTGACCT,1.01 ± 0.034
12,ACTTGTTTGG,1.01 ± 0.023
13,GTTGGTTACC,1.01 ± 0.041
14,GGCCAGTTTG,0.986 ± 0.018
15,CTTGGCAAGG,1.03 ± 0.04
16,CGACGCTTGT,3.15 ± 0.38
17,AAGCATGGGC,1.02 ± 0.029
18,TTTCACGCAA,3.98 ± 1.1
19,GTCTTATGGC,0.997 ± 0.011
